Experimental data from patent publication US20240117018A1.

Columns and labels:
Assay in all cases: cell-based or functional assay
[1] = molecular target: HIV-1 Env pseudovirus 1056_10_TA11_1826 (HIV-1)
[2] = molecular target: HIV-1 Env pseudovirus CNE53 (HIV-1)
[3] = molecular target: HIV-1 Env pseudovirus MS208.A1 (HIV-1)
[4] = molecular target: HIV-1 Env pseudovirus ZM247v1(Rev-) (HIV-1)
[5] = molecular target: HIV-1 Env pseudovirus CNE19 (HIV-1)
[6] = molecular target: HIV-1 Env pseudovirus ZM109F.PB4 (HIV-1)
[7] = molecular target: HIV-1 Env pseudovirus Ce704809221_1B3 (HIV-1)
[8] = molecular target: HIV-1 Env pseudovirus CAP210.2.00.E8 (HIV-1)
[9] = molecular target: HIV-1 Env pseudovirus AC10.0.29 (HIV-1)
[10] = molecular target: HIV-1 Env pseudovirus Ce2010_F5 (HIV-1)
[11] = molecular target: HIV-1 Env pseudovirus SC422661.8 (HIV-1)
[12] = molecular target: HIV-1 Env pseudovirus Ce0393_C3 (HIV-1)
[13] = molecular target: HIV-1 Env pseudovirus C3347.c11 (HIV-1)
[14] = molecular target: HIV-1 Env pseudovirus X1193_c1 (HIV-1)
[15] = molecular target: HIV-1 Env pseudovirus 0815.v3.c3 (HIV-1)
[16] = molecular target: HIV-1 Env pseudovirus 3103.v3.c10 (HIV-1)

Work on N49P11 (antibody) yielded an IC50 [1] of 4.77 µg/mL, an IC80 [1] of 14.2 µg/mL and an MPI [1] of 100. The IC50 [2] was 0.43 µg/mL, the IC80 [2] was 2.88 µg/mL and the MPI [2] was 100. For the same substance, the IC50 [3] was 0.259 µg/mL, the IC80 [3] was 1.94 µg/mL and the MPI [3] was 100. For the same substance, the IC50 [4] was 7.48 µg/mL, the IC80 [4] was 21.5 µg/mL and the MPI [4] was 100. It also gave an IC50 [5] of 0.437 µg/mL, an IC80 [5] of 5.5 µg/mL and an MPI [5] of 100. The IC50 [6] was 5.2 µg/mL, the IC80 [6] was 19.4 µg/mL and the MPI [6] was 100. The IC50 [7] was 0.644 µg/mL, the IC80 [7] was 3.3 µg/mL and the MPI [7] was 100. It also gave an IC50 [8] of 5.12 µg/mL, an IC80 [8] of 19.4 µg/mL and an MPI [8] of 100. It also gave an IC50 [9] of 5.52 µg/mL, an IC80 [9] of 20 µg/mL and an MPI [9] of 100. For the same substance, the IC50 [10] was 0.38 µg/mL, the IC80 [10] was 3.27 µg/mL and the MPI [10] was 100. For the same substance, the IC50 [11] was 0.729 µg/mL, the IC80 [11] was 3.49 µg/mL and the MPI [11] was 100. For the same substance, the IC50 [12] was 1.51 µg/mL, the IC80 [12] was 9.71 µg/mL and the MPI [12] was 100.
In the case of N49P18.1 (antibody), the IC50 [1] is reported as 30.5 µg/mL, the IC80 [1] is reported as over 50 µg/mL and the MPI [1] is reported as 62. The IC50 [2] was 4.08 µg/mL, the IC80 [2] was 21.8 µg/mL and the MPI [2] was 97. It also gave an IC50 [3] of 8.31 µg/mL, an IC80 [3] of 33.3 µg/mL and an MPI [3] of 88. The IC50 [4] was 10.9 µg/mL, the IC80 [4] was over 50 µg/mL and the MPI [4] was 79. It also gave an IC50 [5] of 2.34 µg/mL, an IC80 [5] of 9.64 µg/mL and an MPI [5] of 99. The IC50 [6] was 26.6 µg/mL, the IC80 [6] was over 50 µg/mL and the MPI [6] was 69. The IC50 [7] was 41.6 µg/mL, the IC80 [7] was over 50 µg/mL and the MPI [7] was 59. The IC50 [8] was over 50 µg/mL, the IC80 [8] was over 50 µg/mL and the MPI [8] was 11. For the same substance, the IC50 [9] was 20 µg/mL, the IC80 [9] was over 50 µg/mL and the MPI [9] was 71. For the same substance, the IC50 [10] was 29 µg/mL, the IC80 [10] was over 50 µg/mL and the MPI [10] was 68. For the same substance, the IC50 [11] was 14.1 µg/mL, the IC80 [11] was 43.4 µg/mL and the MPI [11] was 84. For the same substance, the IC50 [12] was 10.3 µg/mL, the IC80 [12] was 24.8 µg/mL and the MPI [12] was 92.
In the case of VRC01 (antibody), the IC50 (Titer in TZM.bl cells) [1] is reported as 0.92 µg/mL, the IC80 (Titer in TZM.bl cells) [1] is reported as 3.28 µg/mL and the IC50 (Titer in TZM.bl cells) [3] is reported as 0.1 µg/mL. It also gave an IC80 (Titer in TZM.bl cells) [3] of 0.46 µg/mL, an IC50 (Titer in TZM.bl cells) [4] of 0.35 µg/mL and an IC80 (Titer in TZM.bl cells) [4] of 1.29 µg/mL. For the same substance, the IC50 (Titer in TZM.bl cells) [13] was 0.17 µg/mL, the IC80 (Titer in TZM.bl cells) [13] was 0.58 µg/mL and the IC50 (Titer in TZM.bl cells) [14] was 0.11 µg/mL. For the same substance, the IC80 (Titer in TZM.bl cells) [14] was 0.32 µg/mL, the IC50 (Titer in TZM.bl cells) [6] was 0.13 µg/mL and the IC80 (Titer in TZM.bl cells) [6] was 0.75 µg/mL. It also gave an IC50 (Titer in TZM.bl cells) [7] of 0.55 µg/mL, an IC80 (Titer in TZM.bl cells) [7] of 2.05 µg/mL and an IC50 (Titer in TZM.bl cells) [8] of over 50 µg/mL. For the same substance, the IC80 (Titer in TZM.bl cells) [8] was over 50 µg/mL, the IC50 (Titer in TZM.bl cells) [15] was 0.06 µg/mL and the IC80 (Titer in TZM.bl cells) [15] was 0.13 µg/mL. The IC50 (Titer in TZM.bl cells) [9] was 2.2 µg/mL, the IC80 (Titer in TZM.bl cells) [9] was 6.5 µg/mL and the IC50 (Titer in TZM.bl cells) [10] was 0.32 µg/mL. For the same substance, the IC80 (Titer in TZM.bl cells) [10] was 1.07 µg/mL, the IC50 (Titer in TZM.bl cells) [16] was 0.93 µg/mL and the IC80 (Titer in TZM.bl cells) [16] was 2.49 µg/mL. It also gave an IC50 (Titer in TZM.bl cells) [11] of 0.08 µg/mL, an IC80 (Titer in TZM.bl cells) [11] of 0.265 µg/mL and an IC50 (Titer in TZM.bl cells) [12] of 0.62 µg/mL. It also gave an IC80 (Titer in TZM.bl cells) [12] of 2.37 µg/mL.
